{
  "source": "patent US11976099B2",
  "about": "“Compositions and methods for treatment of bone associated diseases” (THE NATIONAL INSTITUTE FOR BIOTECHNOLOGY IN THE NEGEV LTD., priority 2016, dated 2024)",
  "molecules": {"B1": {"name": "M-CSFM: 158 amino acid M-CSF with cysteine at position 31 replaced by serine (SEQ ID NO: 2) (protein)", "chain": "EEVSEYCSHMIGSGHLQSLQRLIDSQMETSSQITFEFVDQEQLKDPVCYLKKAFLLVQDIMEDTMRFRDNTPNAIAIVQLQELSLRLKSCFTKDYEEHDKACVRTFYETPLQLLEKVKNVFNETKNLLDKDWNIFSKNCNNSFAECSSQGHERQSEGS"}, "B2": {"name": "M-CSFWT: wild-type human M-CSF, disulfide-bond-linked homodimer which binds and activates c-FMS (protein)", "chain": "B1 chain with S31C"}, "B3": {"name": "M-CSFC31S,M27R: M-CSF double mutant containing both C31S and M27R; monomeric, monospecific c-FMS antagonist (protein)", "chain": "B1 chain with M27R"}},
  "key": {"[1]": {"test_system": "murine bone marrow derived monocytes (BMMs) differentiating to osteoclasts", "assay": "Osteoclast differentiation assay of murine BMMs (TRAP staining)", "format": "cell-based, mouse", "conditions": "for effect on osteoclast differentiation/formation: Example 9, FIG. 13, varying concentrations, five days; for number of osteoclasts and number of nuclei / osteoclast formation: Example 14; for osteoclast formation: 50, 1000 and 5000 nM with M-CSFWT and RANKL", "method": "Primary cells differentiation assay—Murine primary cells were obtained as described in the murine primary cells section. Cells were washed with PBS and detached using a cell scraper, and 20,000 cells were plated in each well of a 96-well plate. Osteoclast differentiation was induced by culturing the cells in α-MEM containing 10% of fetal bovine serum (FBS), penicillin and streptomycin, […] M-CSF and 20 ng/ul RANKL (R&D Systems, USA). To determine the influence of the M-CSFRGD variants and the M-CSFM on the osteoclasts, the proteins were added to the differentiation medium (with M-CSF and RANKL) in three different concentrations (50 nM, 1 μM and 5 μM). After 72-96 h, once the cells had differentiated fully, they were fixated with 4% paraformaldehyde and stained using the tartrate-resistant acid phosphatase (TRAP) staining kit (Sigma-Aldrich, USA) according to manufacturer's protocol. As a positive control, PBS was used instead of the inhibitors, and negative controls comprised cells incubated in differentiation medium without RANKL and inhibitors. […] Cells in each image were counted in a double-blind manner and the number of nuclei in the osteoclasts and the total osteoclast surface area were determined using ImageJ software. Three repeats were performed for every condition, and each repeat was normalized to the positive control values.\nDifferentiation assay—BMMs and CD14+ cells were obtained and grown as described above. The plates containing the monocytes were washed with PBS; the cells were detached using a cell scraper for BMMs or Accutase (Biological industries, Israel) for CD14^+; and 2×10^4 BMMs or 1×10^4 CD14^+ cells were transferred to each well in a 96-well plate. Osteoclast differentiation was induced as described in the ‘phosphorylation assay’ section. To determine the influence of M-CSFC31S and the M-CSFC31S,M27R on osteoclast differentiation, the proteins were added to the differentiation medium (with M-CSF and RANKL) in different concentrations (50 nM, 1 μM and 5 μM for BMMs and 50 nM, 250 nM and 1 μM for CD14^+). To determine the influence of human M-CSFWT on the differentiation, it was added to the cells in different concentrations (50 nM 1 μM and 5 μM) without adding murine M-CSFWT. Once the cells were fully differentiated, they were fixed with 4% paraformaldehyde and stained using the tartrate-resistant acid phosphatase (TRAP) staining kit (Sigma-Aldrich, USA) according to the manufacturer's protocol. As the positive control, cells were incubated with M-CSF and RANKL without inhibitors, and the negative control was comprised of cells that were incubated in differentiation medium without RANKL. […] Cells in each image were counted in a double-blind manner, and the number of nuclei in the osteoclasts was determined using ImageJ software. For the positive control of BMMs, an average of 28.33 osteoclasts and 135 nuclei per well were counted. For CD14^+ positive control, the average numbers of osteoclasts and nuclei were 14.5 and 75, respectively, per well. The results for each parameter were normalized to the positive control values.\nMurine bone marrow monocytes were purified from the bone marrow of eight- to twelve-week-old mice and were seeded for osteoclast differentiation in the presence of recombinant M-CSF and RANKL for 72-96 h. […] At the end of the differentiation period, osteoclasts were fixed and stained for Tartrate resistant acid phosphatase activity (TRAP). Osteoclast differentiation and spreading were evaluated in terms of three parameters: number of osteoclasts, number of nuclei in osteoclasts and osteoclast surface area.\nThe positive control contains a differentiation medium with both M-CSF WT and RANKL. The negative control contains only […], which keeps the cells alive though not differentiated. Varying concentrations of M-CSFM and M-CSFM,M27R were added to the cells, that were grown for five days. Then the cells were fixated and stained using TRAP staining for differentiated osteoclasts. […]"}, "[2]": {"assay": "Small angle X-ray scattering (SAXS) analysis", "format": "physicochemical", "conditions": "3, 5 and 7 mg/ml", "method": "The scattering intensity was recorded in the interval 0.012<q<0.7 Å−1. The measurements were performed under vacuum at 25° C. All three M-CSF variants were measured at concentrations of 3, 5 and 7 mg/ml. The scattering of the buffer was also measured and subtracted from the scattering of the samples. The magnitude of the scattering vector is described by the following equation: […]\nValues for the radius of gyration (Rg) were derived from the small angle part of the SAXS profile (Guinier region, qRg<1.0), in PRIMUS [43]. In this region, Guinier approximation is applicable:\nRg values were also derived using in-house scripts designed to perform an automatic search for the best fitting parameters using GNOM (Svergun, D. I. (1992). J. Appl. Crystallogr. 25, 495-503). CRYSOL ([…] and Koch, M. H. J. (1995) J. Appl. Crystallogr. 28, 768-773) was used to compute the theoretical SAXS spectra based on the M-CSFWT crystal structure (PDB ID code: 3UF2). These spectra served as a reference for reconstruction of the experimental SAXS data. GASBOR (Svergun, D. I., Petoukhov, M. V. and Koch, M. H. J. (2001) Biophys. J. 80, 2946-2953) was used to reconstruct the molecular envelope based on the best GNOM fit obtained from the in-house script. Ten models were calculated for each sample and averaged using DAMAVER (Volkov, V. V. and Svergun, D. I. (2003) J. Appl. Crystallogr. 36, 860-864).\nNext, the size of the M-CSF variants was evaluated in solution. M-CSFWT, M-CSFC31S and M-CSFC31S,M27R at concentrations of 0.5 mg/ml were subjected to dynamic light scattering (DLS) analysis at an angle of 90°. The peaks for the most abundant species in each sample were compared (FIG. 16B), and an estimated hydrodynamic radius was calculated from each peak. […] To confirm that the oligomeric state of M-CSFC31S,M27R is not concentration dependent, all M-CSF variants were subjected to SAXS measurements at concentrations of 3, 5 and 7 mg/ml. Of note is that the Rg values remained within a similar range for M-CSFWT and M-CSFC31S. […]"}},
  "note": "Residue numbers refer to the chain shown, from its start. Names and notes keep the numbering of the source.",
  "data": [
    {"molecule": "B1", "values": [
      {"measurement": "number of osteoclasts and nuclei at 5000 nM", "setting": "[1]; BMMs, 5000 nM", "value": "reduction in both osteoclasts and nuclei number"},
      {"measurement": "effect on osteoclast differentiation", "setting": "[1]; Example 8, 50 nM, 1 μM and 5 μM with M-CSF and RANKL, 72-96 h", "value": "markedly enhanced osteoclast differentiation"},
      {"measurement": "effect on osteoclast differentiation/formation", "setting": "[1]", "value": "acts as an inducer for osteoclast differentiation"},
      {"measurement": "number of osteoclasts and number of nuclei", "setting": "[1]; BMMs", "value": "the opposite result"},
      {"measurement": "osteoclast formation", "setting": "[1]; BMMs", "value": "highly accelerated in the two lower concentrations"},
      {"measurement": "oligomeric state in solution", "setting": "[2]", "value": "exist as dimers in solution"}
    ]},
    {"molecule": "B2", "values": [
      {"measurement": "numbers of osteoclasts and their nuclei", "setting": "[1]; BMMs, 50, 1000 and 5000 nM without murine M-CSFWT", "value": "inhibits both the numbers of osteoclasts and their nuclei, in a dose dependent manner"},
      {"measurement": "oligomeric state in solution", "setting": "[2]", "value": "exist as dimers in solution"}
    ]},
    {"molecule": "B3", "values": [
      {"measurement": "effect on osteoclast differentiation/formation", "setting": "[1]", "value": "inhibits osteoclast formation in a dose dependent manner"},
      {"measurement": "number of osteoclasts and number of nuclei", "setting": "[1]; BMMs", "value": "a decrease in both parameters, in a dose-dependent manner"},
      {"measurement": "osteoclast formation", "setting": "[1]; BMMs", "value": "significantly inhibited, in a dose-dependent manner"},
      {"measurement": "oligomeric state in solution", "setting": "[2]", "value": "is a monomer"}
    ]}
  ]
}
